The values below come from the RNAGym collection of RNA variant scans (doi:10.7554/elife.80360).

Sequences and labels used below:
B1: CPEB3 Ribozyme (parent)
chain: GGGGGCCACAGCAGAAGCGUUCACGUCGCGGCCCCUGUCAGAUUCUGGUGAAUCUGCGAAUUCUGCUGU

Variants of B1 are the subject of the series. In words: self-cleavage, relative activity (ratio to wild type); higher = more cleavage; co-transcriptional.
Consider G5C U53A, for which the self-cleavage stood at 0.175. Under G5C U53G stands 0.212; under C6A C24U, 0.195.

As for G5C U55G, the self-cleavage amounted to 0.115. On to G5C U55C, for which the self-cleavage was found to be 0.175. For the variant C6G A23U, the self-cleavage is 0.526. As for C6G A23G, the self-cleavage is 0.164.

Regarding C6A U49A, the self-cleavage turned out to be 0.641. For the variant G5U C22U, the self-cleavage came to 0.0607. Next, G5U C22A: 0.0283; C6A C39G: 0.372.

C6A C54A: the self-cleavage turned out to be 0.282. As to C6A C54G, the self-cleavage was found to be 0.246.

For G4U U44A, the self-cleavage was found to be 0.532. In the case of G5C G14C, the self-cleavage stood at 0.146. Under G5C G14A stands 0.0874; under G5C G11C, 0.147; under G5C G11A, 0.164. Under G5U C24A stands 0.105; under G5A A15G, 0.846; under G5U C18U, 0.063. In the case of C6G A42G, the self-cleavage came to 0.324. Take C6A G41U: the self-cleavage worked out at 0.225. As to C6A G41C, the self-cleavage was found to be 0.192. Consider G4U G50C, for which the self-cleavage came out at 0.764. Under G4U G50U stands 0.817. In the case of G5U C27A, the self-cleavage is 0.116. Next, G5C U62G: 0.179; G5C U62C: 0.141.

For the variant G5U G41A, the self-cleavage amounted to 0.12. Under G5U U53C stands 0.0878. As to G5U U53A, the self-cleavage came out at 0.116. Next, G5A U46A: 0.907. Next, G5A U46G: 0.925.

On to C6G A8G, for which the self-cleavage turned out to be 0.358. Under C6A U55G stands 0.2; under C6A U55A, 0.396; under G5C A42G, 0.282. On to G5A U53C, for which the self-cleavage was 0.584. Next, G5A U53A: 0.74; G5C G56U: 0.131; G5C G56C: 0.166. As for G4U C29U, the self-cleavage came out at 0.192. Turning to G4U C29G, the self-cleavage stood at 0.1. In the case of C6A A8G, the self-cleavage was 0.53. As for G4U A8G, the self-cleavage stood at 0.512. Next, G4U A8C: 0.691; G5A C66U: 0.88.

On to C6A U64C, for which the self-cleavage was 0.304. For the variant C6A G48U, the self-cleavage was determined as 0.776. For C6A G48A, the self-cleavage worked out at 0.712. Turning to G5C A15U, the self-cleavage stood at 0.15.

G5C A15C: the self-cleavage was 0.113. With G5C A15G, the self-cleavage stood at 0.3. Consider G4U C6U, for which the self-cleavage amounted to 0.31.

G5U A13C: the self-cleavage was determined as 0.0841.

Regarding C6A A52C, the self-cleavage is 0.519. As to C6A C22G, the self-cleavage is 0.155. Under G5A U55G stands 0.433. On to C6G A52U, for which the self-cleavage turned out to be 0.254. On to C6A U67G, for which the self-cleavage is 0.835. Next, G5U C34U: 0.111; C6A G58C: 0.567; G4U C33G: 1. As for G4U A23U, the self-cleavage stood at 0.86. Take G4U A23C: the self-cleavage was 0.573. Next, G5C G28A: 0.134; G4U A40C: 0.199; G5U G30A: 0.0886. Next, C6A G30C: 0.209. As for G5A G11A, the self-cleavage amounted to 0.785.

As for C6A C35G, the self-cleavage was determined as 0.134. As for C6A C35U, the self-cleavage is 0.27. With C6G A51C, the self-cleavage is 0.154. Under C6G A51G stands 0.356; under G4U A13G, 0.649. Next, G4U G30A: 0.142.

For the variant G5C U49G, the self-cleavage worked out at 0.282. In the case of G5C U49A, the self-cleavage is 0.287. For G5C U49C, the self-cleavage was 0.282.

In the case of G5A C18A, the self-cleavage was found to be 0.12. Next, G5C C57U: 0.0922; C6A G11C: 0.29.

As for G4U U26A, the self-cleavage came to 0.282. Next, G4U U26C: 0.641. Regarding G4U G31A, the self-cleavage was 0.0947.

Regarding G4U C39U, the self-cleavage came out at 0.376. Regarding G4U C39G, the self-cleavage is 0.558.

With G5C A40U, the self-cleavage is 0.134. Next, G4U U67G: 0.921; G5U G14C: 0.0568; G4U U43C: 0.462. Under C6A C12U stands 0.581; under G4U G14A, 0.257; under G5U U36C, 0.21.

With C6A A42U, the self-cleavage was 0.374. Regarding G5U U21G, the self-cleavage was 0.0935. In the case of C6A U26C, the self-cleavage was 0.333. For the variant C6G A60C, the self-cleavage turned out to be 0.0823. Next, G5A G50U: 0.906; G5C G17U: 0.118; G5C A13G: 0.273.

G5C A13U: the self-cleavage turned out to be 0.172. Under G5C A13C stands 0.17; under G5C C6U, 0.158. As for G5C C6A, the self-cleavage came out at 0.0948.

In the case of G5A C22A, the self-cleavage turned out to be 0.134. Next, G4U C9U: 0.954. Next, G5U C35A: 0.0833; G5U C35U: 0.0952; G5A U49C: 0.969. Under G5A U49G stands 0.781; under G5A G19U, 0.197. Regarding G5U A59G, the self-cleavage was 0.139. Next, G5U A59C: 0.181. As for G4U U38G, the self-cleavage worked out at 0.114. Consider G5U C45G, for which the self-cleavage is 0.149. Next, G5U C9G: 0.772; G5A A40U: 0.719. For the variant G4U A42C, the self-cleavage worked out at 0.179. Consider G5C C22A, for which the self-cleavage was 0.107.

For the variant G5C C66A, the self-cleavage worked out at 0.202. On to G5C C66G, for which the self-cleavage came to 0.186. Next, G4U G5C: 0.105; G4U G5A: 0.0691. Take G5A A59U: the self-cleavage was determined as 0.415. Consider G4U C27G, for which the self-cleavage worked out at 0.0677. Next, G4U C7G: 0.0264; G4U C7A: 0.0496. Turning to G5C C45A, the self-cleavage is 0.283. In the case of C6A C33A, the self-cleavage was 0.127.

Consider G5U U43C, for which the self-cleavage came out at 0.133. On to G5U U43A, for which the self-cleavage turned out to be 0.111.

As to G4U U62A, the self-cleavage is 0.315. Under G5U G58U stands 0.37.

On to G5U G58C, for which the self-cleavage came to 0.2. Regarding G5U G58A, the self-cleavage was 0.172.

In the case of G4U A59G, the self-cleavage turned out to be 0.442. Regarding G5U C39A, the self-cleavage amounted to 0.0897.

Regarding G5U C39G, the self-cleavage was determined as 0.0932. Next, C6A C34G: 0.144; C6A C34A: 0.153; G5A: 0.933. Next, G5C: 0.24.

In the case of G5U, the self-cleavage came out at 0.316. On to C6G A10C, for which the self-cleavage was found to be 0.284.

With G4U A16G, the self-cleavage was determined as 0.444. Next, G4U A16C: 0.0815.

Consider G5U G31U, for which the self-cleavage turned out to be 0.0958. Regarding G5C C35U, the self-cleavage came to 0.162. With G5C C35G, the self-cleavage was determined as 0.121.

Regarding C6A U20G, the self-cleavage was 0.161. With G5U U55C, the self-cleavage worked out at 0.147.

Consider G4U A60G, for which the self-cleavage was 0.302. Turning to G5A A23G, the self-cleavage is 0.806.

Regarding G5A A23C, the self-cleavage came to 0.766. In the case of G5C C24A, the self-cleavage was determined as 0.112.

As to G5U C33U, the self-cleavage was determined as 0.121. G5U C33A: the self-cleavage was found to be 0.0802. With G5U C33G, the self-cleavage was determined as 0.0433. Turning to G5U C12G, the self-cleavage was determined as 0.1. For G5U C12A, the self-cleavage worked out at 0.112. Next, G5C U20A: 0.0824; G5C U20C: 0.0972; G4U G37U: 0.128.

In the case of G5A C32U, the self-cleavage worked out at 0.992. Turning to G5A C32G, the self-cleavage was 0.847.
